Data from publication doi:10.1101/2021.01.11.425814 (bioRxiv, 2021).

Target: p53 transactivation domain (TAD) (13-61) (human, UniProt P04637 13-61)
Experiment: ITC

Sequence of p53 transactivation domain (TAD) (13-61) (P04637 13-61): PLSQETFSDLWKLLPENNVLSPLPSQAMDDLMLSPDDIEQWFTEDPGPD

dH: 12.3 kcal/mol | stoichiometry N: 1.04
B1: FOXO4 forkhead domain (FHD) (95-195) (domain or fragment)
chain: GSRRNAWGNQSYAELISQAIESAPEKRLTLAQIYEWMVRTVPYFKDKGDSNSSAGWKNSIRHNLSLHSKFIKVHNEATGKSSWWMLNPEGGKSGKAPRRRA
